Test results: PMC6061791 (Nucleic Acids Research, 2018)

Tests used:
[1] = target: T1, DapF (L89A), N-terminal 6×His tag (Escherichia coli, UniProt P0A6K1 1-274, L89A); assay: ITC
T1 sequence (looked up): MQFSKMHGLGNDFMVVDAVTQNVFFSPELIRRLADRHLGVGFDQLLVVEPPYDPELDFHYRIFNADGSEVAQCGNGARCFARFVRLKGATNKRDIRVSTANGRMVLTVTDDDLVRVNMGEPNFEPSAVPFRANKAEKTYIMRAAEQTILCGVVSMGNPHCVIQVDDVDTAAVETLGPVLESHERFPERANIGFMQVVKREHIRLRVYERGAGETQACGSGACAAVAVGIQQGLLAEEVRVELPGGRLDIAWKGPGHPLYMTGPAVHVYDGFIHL

[2] = target: T2, DapF (diaminopimelate epimerase), wild type, N-terminal 6×His tag (Escherichia coli, UniProt P0A6K1 1-274); assay: ITC
T2 sequence (looked up): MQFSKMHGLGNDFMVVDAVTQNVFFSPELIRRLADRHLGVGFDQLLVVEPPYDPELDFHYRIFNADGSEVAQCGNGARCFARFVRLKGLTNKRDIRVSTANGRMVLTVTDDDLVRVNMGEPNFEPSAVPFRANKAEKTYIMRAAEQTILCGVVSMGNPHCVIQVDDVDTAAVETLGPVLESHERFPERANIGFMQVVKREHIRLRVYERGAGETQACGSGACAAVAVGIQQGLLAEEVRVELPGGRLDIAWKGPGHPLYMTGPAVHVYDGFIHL

[3] = target: T3, DapF (T20A), N-terminal 6×His tag (Escherichia coli, UniProt P0A6K1 1-274, T20A); assay: ITC
T3 sequence (looked up): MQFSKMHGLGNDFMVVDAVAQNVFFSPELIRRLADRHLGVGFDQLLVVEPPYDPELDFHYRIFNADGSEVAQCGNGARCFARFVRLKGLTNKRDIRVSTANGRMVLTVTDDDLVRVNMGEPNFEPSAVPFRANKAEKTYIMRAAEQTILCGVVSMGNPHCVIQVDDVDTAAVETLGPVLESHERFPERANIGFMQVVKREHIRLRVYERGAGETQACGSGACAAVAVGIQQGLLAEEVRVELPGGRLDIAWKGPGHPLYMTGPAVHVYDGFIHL

[4] = target: T4, DapF (N22A), N-terminal 6×His tag (Escherichia coli, UniProt P0A6K1 1-274, N22A); assay: ITC
T4 sequence (looked up): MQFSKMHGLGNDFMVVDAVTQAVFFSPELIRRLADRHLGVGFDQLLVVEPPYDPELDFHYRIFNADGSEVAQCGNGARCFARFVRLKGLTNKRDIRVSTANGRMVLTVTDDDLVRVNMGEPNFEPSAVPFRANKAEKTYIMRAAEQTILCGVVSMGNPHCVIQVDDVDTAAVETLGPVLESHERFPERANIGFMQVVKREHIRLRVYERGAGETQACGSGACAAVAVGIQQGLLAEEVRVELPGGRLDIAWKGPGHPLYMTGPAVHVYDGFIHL

[5] = target: T2, DapF (diaminopimelate epimerase), wild …; assay: AUC
[6] = target: T5, DapF (Y268A), N-terminal 6×His tag (Escherichia coli, UniProt P0A6K1 1-274, Y268A); assay: AUC
T5 sequence (looked up): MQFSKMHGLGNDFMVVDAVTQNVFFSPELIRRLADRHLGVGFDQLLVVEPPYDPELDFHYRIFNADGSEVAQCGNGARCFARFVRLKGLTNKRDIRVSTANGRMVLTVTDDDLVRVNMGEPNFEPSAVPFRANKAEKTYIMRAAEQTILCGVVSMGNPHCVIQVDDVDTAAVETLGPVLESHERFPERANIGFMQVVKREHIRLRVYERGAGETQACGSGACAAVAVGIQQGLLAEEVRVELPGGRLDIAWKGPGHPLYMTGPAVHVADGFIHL

[7] = target: T6, RppH (Escherichia coli DH5alpha, UniProt P0A776 1-176); assay: ITC
T6 sequence: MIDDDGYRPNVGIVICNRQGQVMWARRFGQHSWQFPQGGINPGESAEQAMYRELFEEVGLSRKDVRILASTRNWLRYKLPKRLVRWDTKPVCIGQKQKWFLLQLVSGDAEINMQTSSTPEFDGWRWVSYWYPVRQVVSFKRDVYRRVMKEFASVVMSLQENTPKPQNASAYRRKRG

[8] = target: T7, RppH;DapF (Escherichia coli DH5alpha;Escherichia …, UniProt P0A776;P0A6K1 1-176;1-274, |); assay: ITC
T7 sequence 1: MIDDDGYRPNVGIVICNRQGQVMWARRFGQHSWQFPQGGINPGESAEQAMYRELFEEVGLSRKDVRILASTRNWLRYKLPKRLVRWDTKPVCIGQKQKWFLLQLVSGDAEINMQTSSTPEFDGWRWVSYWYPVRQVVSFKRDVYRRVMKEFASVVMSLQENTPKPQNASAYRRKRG
T7 sequence 2: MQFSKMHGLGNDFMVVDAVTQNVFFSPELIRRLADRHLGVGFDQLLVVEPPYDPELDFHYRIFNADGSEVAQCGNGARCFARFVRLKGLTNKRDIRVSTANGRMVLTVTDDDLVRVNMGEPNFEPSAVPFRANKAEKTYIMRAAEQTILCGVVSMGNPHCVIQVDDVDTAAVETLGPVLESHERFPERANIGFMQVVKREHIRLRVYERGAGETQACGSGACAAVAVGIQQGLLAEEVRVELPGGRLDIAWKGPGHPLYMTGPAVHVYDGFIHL

[9] = target: T8, DapF (Escherichia coli DH5alpha, UniProt P0A6K1 1-274); assay: ITC
T8 sequence: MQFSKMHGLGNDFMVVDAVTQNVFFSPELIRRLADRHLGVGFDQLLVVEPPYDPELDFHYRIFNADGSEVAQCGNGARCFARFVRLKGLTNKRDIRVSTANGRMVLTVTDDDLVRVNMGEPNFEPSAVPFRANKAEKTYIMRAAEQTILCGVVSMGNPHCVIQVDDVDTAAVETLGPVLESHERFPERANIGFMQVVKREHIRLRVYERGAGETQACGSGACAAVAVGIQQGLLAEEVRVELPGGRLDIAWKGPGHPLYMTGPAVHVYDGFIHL

B1: RppH (RNA pyrophosphohydrolase), wild type, GST tag removed (enzyme, Escherichia coli, UniProt P0A776 1-176, looked up)
chain: MIDDDGYRPNVGIVICNRQGQVMWARRFGQHSWQFPQGGINPGESAEQAMYRELFEEVGLSRKDVRILASTRNWLRYKLPKRLVRWDTKPVCIGQKQKWFLLQLVSGDAEINMQTSSTPEFDGWRWVSYWYPVRQVVSFKRDVYRRVMKEFASVVMSLQENTPKPQNASAYRRKRG
With B1 the Kd [1] was 5.2 ± 0.9 nM, the dH [1] was -10.4 ± 0.1 kcal⋅mol^-1 and the “stoichiometry N” value [1] was 1.06. For the same binder, the Kd [2] was 0.8 ± 0.4 nM, the dH [2] was -13 ± 0.1 kcal⋅mol^-1 and the “stoichiometry N” value [2] was 0.95. For the same binder, the Kd [3] was 4.2 ± 1.8 nM, the dH [3] was -14.4 ± 0.2 kcal⋅mol^-1 and the “stoichiometry N” value [3] was 0.97. For the same binder, the Kd [4] was 0.3 ± 0.1 nM, the dH [4] was -16.4 ± 0.1 kcal⋅mol^-1 and the “stoichiometry N” value [4] was 0.96. The “stoichiometry N” value [5] was 1 RppH per DapF (2:2 heterotetramer) and the “stoichiometry N” value [6] was 1 RppH per DapF (1:1 heterodimer).

B2: RppH (D142A), GST tag removed (enzyme, Escherichia coli, UniProt P0A776 1-176, looked up)
chain: MIDDDGYRPNVGIVICNRQGQVMWARRFGQHSWQFPQGGINPGESAEQAMYRELFEEVGLSRKDVRILASTRNWLRYKLPKRLVRWDTKPVCIGQKQKWFLLQLVSGDAEINMQTSSTPEFDGWRWVSYWYPVRQVVSFKRAVYRRVMKEFASVVMSLQENTPKPQNASAYRRKRG
In the case of B2, the Kd [2] is reported as 4.8 ± 1.8 nM, the dH [2] is reported as -11 ± 0.2 kcal⋅mol^-1 and the “stoichiometry N” value [2] is reported as 1.05.

B3: RppH (R145A), GST tag removed (enzyme, Escherichia coli, UniProt P0A776 1-176, looked up)
chain: MIDDDGYRPNVGIVICNRQGQVMWARRFGQHSWQFPQGGINPGESAEQAMYRELFEEVGLSRKDVRILASTRNWLRYKLPKRLVRWDTKPVCIGQKQKWFLLQLVSGDAEINMQTSSTPEFDGWRWVSYWYPVRQVVSFKRDVYARVMKEFASVVMSLQENTPKPQNASAYRRKRG
For B3, the Kd [2] was 2.3 ± 1 nM, the dH [2] was -14.6 ± 0.1 kcal⋅mol^-1 and the “stoichiometry N” value [2] was 1.01.

B4: RppH (S128A), GST tag removed (enzyme, Escherichia coli, UniProt P0A776 1-176, looked up)
chain: MIDDDGYRPNVGIVICNRQGQVMWARRFGQHSWQFPQGGINPGESAEQAMYRELFEEVGLSRKDVRILASTRNWLRYKLPKRLVRWDTKPVCIGQKQKWFLLQLVSGDAEINMQTSSTPEFDGWRWVAYWYPVRQVVSFKRDVYRRVMKEFASVVMSLQENTPKPQNASAYRRKRG
For B4, the Kd [2] was 12.8 ± 6 nM, the dH [2] was -12.5 ± 0.3 kcal⋅mol^-1 and the “stoichiometry N” value [2] was 0.85.

For AGAACAAC (ssRNA, 5'-triphosphate) [8 nt RNA pppAGAACAAC], the binding result [7] was “binds”, the Kd [8] was roughly 120000 nM and the binding result [9] was “no binding”.
